{"source": "patent US20090282582A1", "about": "“ENVIRONMENTAL STRESS RESPONSIVE PROMOTER AND METHOD OF TISSUE-SPECIFIC GENE EXPRESSION USING THE SAME” (RIKEN, priority 2006, published 2009)", "molecules": {"B1": {"name": "Promoter of RAFL06-16-J10: environmental stress responsive promoter DNA, SEQ ID NO: 5, upstream of At2g06050 (OPR3 gene) (nucleic acid, listed as Arabidopsis thaliana)", "DNA": "CCTGGGACTTGGGCTGAGAATAATGAAGTGGCTGGGAAATGATTAGTTAAGGATGGCTTGATGAATTCTCAATATTCTGTTGAGGGAACAAAATATACTAGGAAGGATGCAAGTCCAGTTTGGTCTAAACCATTGTACGAACCAAAAACAATCAATAAAGTAACTCAGGGCTCACAAATGGTCGATAATATTTCTAAAGTTTCAGTTCTAGAGGATGAGCAAAAGGATTTGATGATGGGAGATGTACTAGAGGTACAAGACAAGAGTCTCACTGAAGGGTTGAATTTCAGATATTTTAAATCACGTTTGGAGTAACAAAAAACAAATGTGAGAAGGAGCTCAATTAGCTCCAACTGAATCTAGTGTTATTAGGGATACTTTGGAAACTCCAATTCAATCTTTAAGATGTAGGATTGATGAATTCATGGAAATCGGCAGATCCATCTATGAATTTAGTATGGTGGTGTTTCCTAGGAATTGACAATACAATTTTACTTGGTGCAAAGTGTCTTCGGAGGTGTCCCTTTCTTTTTCACTCGGAATTGGAAGTTTTAATATTGGCAATAAAAAATATCCTTTCAAGAAGGATAAAGTGTCAGGCATTTGAAACAGATAATTATTCAGAGTAAGTTTTGATGGTACAGTCCCCTGAAGAATGACTCGCTTTCTCTAATTTTTTAGAAGATCTTGAATTGCTATGTGTCTCCTTTTCTTGCTTTCTTCTATTTCATGTTTATGTAATACTAAGGCAAACTATTTAGCACAATATTCTAAACTTTTATTTTCTGAAGTTATTTTTTAAACCCTTTCCCTCCTAATTGGACAACCAATCATGGAATTAGTTTTTACGTAATGTTTTAAACTCACTATTTCACCTTTATTCTGACCTGTTAATGGAAGACAACTATGACTTTATACATTGAAATGTTGTCAACCTGTTATATATTAATGTTAACATAGCTAATGACCTATCAATGTACGTAAAGCGAATGTCAATCATATTCGTATCCGTTAATTTCATTTAGGAAATCAGGCTCATTGCCAATCCACTAAGAAACATCTCTGATAGATCCAAATAATAAAAATAATATAATATGAAGCAAAATAGAACGAAATATCTCACGCGGACCAAACTTTGAACTTTATTATAAAACAAATCAGCACGTGAAAGTAATGGTCGGTTCGGTCCAAGATGCCAAGAACTCCTCCGGTCCATCCATCAACCTAACCTTTTTTGGATATAAAATTTAGCAAATTCCATTTCCACGACCACACAACAACAACACATCCACTCGAATTTTCTATTTCCGAATAACAAAACCGGTAAACTCATCACAAACTTAAGTTACTTTGTAGTTTGTGTTTTGTCCTTTTATGTAATGAAGAAGATCCAACTAACTACTACTCAATATTTTTGTATTGACCGTTGATTTCTCAGATCTGACTTTTACTTCTCCTTCTTCCAGATCGGCGGAGAC"}, "B2": {"name": "Promoter of RAFL07-08-I12: environmental stress responsive promoter DNA, SEQ ID NO: 6, upstream of At2g26530 (homolog of calmodulin-binding protein) (nucleic acid, listed as Arabidopsis thaliana)", "DNA": "CGGGTTTTATTTTGGAATTGGGTTATATGGTGGATGTATTTGAATCAATATTTATAAAAATTTAACAATTATCTCATGGATTCGTGGTATAACGTTACCTAATAACAATTATAAACTGTAAAATAAAAATATTTTATAAAAATAAAATTTGCAAGTTTTAATATATATTACTTTTAAAAAATAAATCGTCCCGCGGTATACCGCGGGTTAAAATCTAGTCTATGTTTATTATAAAAGAATACAATGTATTAATGTATAAATTATCTTATGCATGAGCACGATGATCATCTAGTAGTATACATCTTACCCGTCGACAAAAACAAAATGTTCCTTATCCAGTATCTAGATGGATCGTGTGAACTCAATTCTACGTAGAACACAAAAGTCCTCTCGTTTGGTCACTGAATTAATTTGAACGATATTATTTATTAGGACCACCGGTTAAATTGGCCTCGTGGTCTAAATATGCCTTCGAATGGTCCAACAACCATGTGGTCAATGCCGACTATGAAAATGACTGAAAATTCAAAACATGTAAGTGGGTTACCACCACTTATCATTATGTTCCAAATCGTTTGCATTAAACAACTTTATTTCGACACATGCGGTCTGAAAAGGCGGCCAATTAATTTACGTTAATCATCGTTTACTATTATTATCTTCGGAATATTTCCAACACAATCAATCTAGTTGGTTCCAATTCTCATCACATATTTTATTTTATAGTTTAAAGTCTTTCAATTCAGTAGTCTAACTGTATAACATATGACTTCGAACAGATTGATATAGACCACTCAATCTAATAATATCGTTTTAGCTACGAAGAGTATACAAAAAAAGCTAGTTGGATAGTTTAAAAATTAAATGCTAGAAGAATGTTGGATATATCAAACAATAAAATTAATATTTAGAGAGAAAATATCGTAATAGAGTTTTTTCTATAAATAAATTTTTGAGTTAAAAAATATTATTAGCCTGACCAAACTCTTTTTATTTCTTTAAACTATGACAGTAAGATCTAAATTTTAATAAACCAATGTTTATTTAATATTTTCAGAAATGGGCTAAAAATGACTAGTTGTTGTATGTGTTTCCTTTGAATAAAAGCTCAACAAACAAAAACTAGAAGTCATTATGTAAAAAAACTAATGACATAGTATTAGGTATTTTTTGCAAATTATTCACACATGTTGCCAAAAGTTGTTTTTTATATTATATGTTTGGTCAGCGAAAACGGTTTAAAGCACTCTCTCTTTCCTCTCGCCTTCCTTTGATGATCCTTTTTAGTTCCCTTCTTCTCATTGCTCTTGAGACCATCTCCGAACTCAAAGGAAACTAGAAACA"}}, "key": {"[1]": {"tested_on": "Arabidopsis thaliana (columbia ecotype) plant body", "assay": "full-length cDNA microarray analysis of gene expression levels after environmental stress application", "conditions": "in vivo", "protocol": "In this example, the gene expression levels at the time of application of various types of environmental stresses were analyzed using microarrays. Specifically, the microarrays described in Seki et al., “Monitoring the expression profiles of 7000 Arabidopsis genes under drought, cold, and high-salinity stresses using a full-length cDNA microarray,” Plant J. 31: 279-292, 2002, were used, and analysis was carried out in accordance with the method similar to the method described therein. Various types of environmental stresses were applied to a plant body under the following conditions. Specifically, low-temperature stress application was carried out by introducing a plate containing a plant body into a low-temperature chamber (4° C.). Dehydration stress application was carried out by capturing the plant body with forceps while refraining from damaging the plant body, roughly removing moisture from the plant body on a Kim Towel, placing the plant body on another plate, placing the plate in a clean bench while leaving the lid open, letting it stand for 2 hours, and then closing the lid. Salt stress application was carried out by dispensing a mixture of MS medium (containing 1% sucrose, 0.1% agar, and 1 mM luciferin) with 250 mM NaCl to the roots of the plant bodies (200 μl per plant body) using a Pipetman. ABA stress application was carried out by dispensing a mixture of MS medium (containing 1% sucrose, 0.1% agar, and 1 mM luciferin) with 100 μM ABA to the roots of the plant bodies (200 μl per plant body) using a Pipetman. As a plant body to which environmental stress is to be applied, Arabidopsis thaliana (columbia ecotype), which had been cultivated on a germination medium containing Murashige and Skoog Salt, 3% sucrose, and […] for 3 weeks, was used. Cultivation conditions were determined so as to maintain the temperature in the chamber at 22° C. with a 16-hour light period and an 8-hour dark period. Total RNA was extracted from plant bodies after environmental stress application or from plant bodies to which no environmental stress had been applied using the TRIZOL Reagent (Life Technologies), and mRNA was extracted using the mRNA isolation kit (Militenyi Biotec Auburn). In accordance with the method described in the above article, mRNA samples were reversely transcribed in the presence of Cy3 dUTP or Cy5 dUTP (Amersham Pharmacia). Microarray analysis was carried out using cDNAs obtained via reverse transcription. Data obtained via microarray analysis were analyzed using the Quantarray Version 2.0 (GSI Lumonics)."}, "[2]": {"tested_on": "transgenic Arabidopsis thaliana plant body (luciferase reporter gene)", "assay": "luciferase assay of promoter::LUC transgenic plants after environmental stress application", "assay_type": "in vivo", "conditions": "for Tissue in which specific induction of expression is realized / time after stress application at which activity to induce gene expression is exhibited: Dehydration stress; for time after stress application at which activity to induce gene expression is lowered: dehydration stress, stem and leaf tissue; for Tissue allowing specific induction: summary over stress types", "protocol": "Specifically, promoter regions were isolated from these genes, transgenic plants in which luciferase reporter genes were to be expressed under the control of such promoters were prepared, and tissue specificity of the promoters was inspected via luciferase assay.\nIn this example, DNA fragments containing promoter regions of the genes identified in Example 1 were recovered via PCR.\nThe nucleotide sequences of the amplified DNA fragments were determined in accordance with a conventional technique to confirm that mutagenesis, such as substitution or deletion, was not introduced thereinto. After the absence of mutagenesis was confirmed, the recovered DNA fragments were introduced into the vector for promoter analysis (i.e., a vector prepared by introducing the Gateway recombinant sequence (tradename: Gateway Vector Conversion System, Invitrogen) and the luciferase reporter gene into the pGreen vector (Plant Molecular Biology 42: 819-832, 2000)) using the Gateway recombination system to construct a recombinant vector.\nThe recombinant vector prepared in (1) above was introduced into a plant via Agrobacterium infection. When a gene is introduced via Agrobacterium infection, a process of infecting a plant with Agrobacterium containing a plasmid comprising the target gene construct is necessary. This process was carried out via vacuum infiltration. Specifically, a plant body of Arabidopsis thaliana that had been grown in soil comprising vermiculite and an equivalent amount of pearlite was soaked in a culture solution of Agrobacterium containing the recombinant vector prepared in (1). The resultant was placed in a desiccator, suctioned with a vacuum pump to 65 to 70 mmHg, and then allowed to stand at room temperature for 5 to 10 minutes. The pot was transferred onto a tray, covered with a wrap, and kept moistened. The wrap was removed on the following day, the plant was allowed to grow in that state, and seeds were then harvested.\nSubsequently, seeds were sown on MS agar medium to which antibiotic hygromycin has been added in order to select an individual having the recombinant vector prepared in (1). Arabidopsis thaliana that had been grown in this medium was transferred to a pot and allowed to grow therein. Thus, seeds of transgenic plants to which the recombinant vector prepared in (1) has been introduced were obtained.\nThe seeds of the transgenic plant lineage prepared in (2) were sowed on MS agar medium. The plant body 10 days after sowing was used for luciferase assay.\nAt the outset, 1 mM luciferin (containing 0.01% Triton-X) was sprayed over the entire plant body 5 times. After the plant body was allowed to stand in the dark for 5 minutes, luciferase luminescence was assayed using ARGUS (assay after treatment for 0 hours). Subsequently, various types of environmental stresses were applied (see below). Low-temperature stress application was carried out by introducing a plate containing a plant body into a low-temperature chamber (4° C.). Dehydration stress application was carried out by capturing the plant body with forceps while refraining from damaging the plant body, roughly removing moisture from the plant body on a Kim Towel, placing the plant body on another plate, placing the plate in a clean bench while leaving the lid open, letting it stand for 2 hours, and then closing the lid. Salt stress application was carried out by dispensing a mixture of MS medium (containing 1% sucrose, 0.1% agar, and 1 mM luciferin) with 250 mM NaCl to the roots of the plant bodies (200 μl per plant body) using a Pipetman. ABA stress application was carried out by dispensing a mixture of MS medium (containing 1% sucrose, 0.1% agar, and 1 mM luciferin) with 100 μM ABA to the roots of the plant bodies (200 μl per plant body) using a Pipetman.\nLuciferase luminescence was assayed 2, 5, and 10 hours after the above various types of environmental stresses had been applied using the ARGUS system (Hamamatsu Photonics). […]"}}, "data": [{"molecule": "B1", "values": [{"measurement": "Environmental stress type to which the promoter responds", "setting": "[1]", "result": "Dehydration and salt"}, {"measurement": "Tissue in which specific induction of expression is realized", "setting": "[2]", "result": "Stem and leaf tissue"}, {"measurement": "time after stress application at which activity to induce gene expression is exhibited", "setting": "[2]", "result": "about 2 hours"}, {"measurement": "Tissue in which specific induction of expression is realized", "setting": "[2]; listed as promoter of RAFL06-16-J10", "result": "stem and leaf tissue"}, {"measurement": "time after stress application at which activity to induce gene expression is lowered", "setting": "[2]", "result": "about 10 hours"}, {"measurement": "Tissue allowing specific induction", "setting": "[2]", "result": "Stem and leaf tissue"}]}, {"molecule": "B2", "values": [{"measurement": "Environmental stress type to which the promoter responds", "setting": "[1]", "result": "Dehydration and salt"}, {"measurement": "Tissue in which specific induction of expression is realized", "setting": "[2]", "result": "Stem and leaf tissue"}, {"measurement": "time after stress application at which activity to induce gene expression is exhibited", "setting": "[2]", "result": "about 2 hours"}, {"measurement": "Tissue in which specific induction of expression is realized", "setting": "[2]; listed as promoter of RAFL07-08-I12", "result": "stem and leaf tissue"}, {"measurement": "time after stress application at which activity to induce gene expression is lowered", "setting": "[2]", "result": "about 5 hours"}, {"measurement": "Tissue allowing specific induction", "setting": "[2]", "result": "Stem and leaf tissue"}]}]}
